B1: C092 (antibody, V domains shown)
VH: QVQLVQSGAEVKKPGSSVKVSCKASGGSFTNHFISWVRQAPGQGLEWMGRIIPILGTANYAQNFQGRVMMTADKSTSTAYMELSSLRSEDTAVYYCARDSGYSGYGSTYYMDVWGKGTTVTVSS
VL: QSVLTQPPSVSGAPGQRVTISCTGSNSNIGAGYDVHWYQQLPGAAPKLLIYGNNNRPSGVPDRFSGSKSDTSASLAITGLQVEDEADYYCQSYDSSLSDSVFGSGTKVTVL
B2: C807 (antibody, V domains shown)
VH: QVQLVQSGAEAKKPGSSVKVSCKASGGTFKSYIINWVRQAPGQGLEWMGEIIPIFGTANYAQKFQGRVTSTADESTSTAYMELSSLKSEDTAVYYCARGRGYSGYGASYYFDYWGQGTLVTVSS
VL: QSVLTQPPSVSGAPGQRVTISCTGSNSNIGAGYDVHWYQQLPGTAPKLLIYANSNRPSGVPDRFSGSKSGTSASLAITGLQAEDEADYYCQSYDSGLSGSVFGGGTKLTVL
B3: BD56-104-R1-32 HCDR3 (antibody, V domains shown)
VH: QVQLVQSGAEVKTPGSSVKVSCKASGGTFGSHSITWVRQAPGQGLEWMGRVIPILGIPDFAESFQGRVAITADRSTSTAHMELSRLRSEDTAVYYCARENGYSGYGAAANFDLWGQGTLVTVSS
VL: QSVLTQPPSVSGAPGQRVTISCTGSNSNIGAGYDVHWYRQLPGTAPKLLIYVNNNRPSGVPDRFSGSRSGASASLAITGLQAEDEAEYYCQSYDSSLSGSIFGGGTKLTVL
B4: BD56-104 (antibody, V domains shown)
VH: QVQLVQSGAEVKTPGSSVKVSCKASGGTFGSHSITWVRQAPGQGLEWMGRVIPILGIPDFAESFQGRVAITADRSTSTAHMELSRLRSEDTAVYYCARDVGYSGSGSSNYFDSWGQGTLVTVSS
VL: QSVLTQPPSVSGAPGQRVTISCTGSNSNIGAGYDVHWYRQLPGTAPKLLIYVNNNRPSGVPDRFSGSRSGASASLAITGLQAEDEAEYYCQSYDSSLSGSIFGGGTKLTVL
B5: BD56-597 (antibody, V domains shown)
VH: QVQLVQSGAEVKKPGSSVKVSCKASGGTFSTYPISWVRQAPGQGVEWMGAIIPILGTTDYAQIFQGRVTITADKSTSTAYMELSSLRPEDTAVYYCARERGYSGYGAAYYFDSWGQGTLVTVSS
VL: QSVLTQPPSVSGAPGQRVTISCTGSDSNIGAGYDVHWYQQLPGTAPKLLIYVNINRPSGVPDRFSGSKSATSASLAITGLQAEDEADYYCQSYDSSLSGVVFGGGTKLTVL
B6: R1-32 (antibody, V domains shown)
VH: EVQLVESGAEVKKPGSSVKVSCKASGGTFSSYAISWVRQAPGQGLEWMGGIIPILGIANYAQKFQGRVTITADKSTSTAYMELSSLRSEDTAVYYCARENGYSGYGAAANFDLWGRGTLVTVSS
VL: QSVLTQPPSVSGAPGQRVTISCTGSSSNIGAGYDVHWYQQLPGTAPKLLIYGNSNRPSGVPDRFSGSKSGTSASLAITGLQAEDEADYYCQSYDSSLSGSVFGGGTKLTVL
B7: ZL525 (antibody, V domains shown)
V domain 1: QVQLVQSGAEVKKPGSSMKVSCQASGGTFSSHPISWIRQAPGQGLEWMGRIIPIAGMTDYGQKFQGRITITADTSTSTSYVELRGLRSQDTAFYYCAKDVGYSDYGSAYYFHTWGQGTLITVSS
V domain 2: QSVLTQPPSVSGAPGQRVTISCTGSNSNIGAGYDVHWYQQLPGTAPKLLIYRNNKRPSGVPDRFSGSKSDTSASLAITGLQAEDEAHYYCQSFDSSLGGSLFGGGTKLAVL
B8: R1-32-AAM (R1-32-artificial-affinity-matured) (antibody, V domains shown)
VH: EVQLVESGAEVKKPGSSVKVSCKASGGTFSSYFISWVRQAPGQGLEWMGGIIPILGIADYAEKFQGRVTITADKSTSTAYMELSSLRSEDTAVYYCARENGYSGYGAAYNFDLWGRGTLVTVSS
VL: QSVLTQPPSVSGAPGQRVTISCTGSDSNIGAGYDVHWYQQLPGTAPKLLIYGNSNRPSGVPDRFSGSKSDTSASLAITGLQAEDEADYYCQSYDSSLSDSVFGGGTKLTVL

Tests used:
Assay in all cases: BLI
HeB2013 RBD = HeB2013 RBD (SARSr-CoV BtRf-BetaCoV/HeB2013)
Bat-WIV1 RBD = Bat-WIV1 RBD (Bat SARS-like coronavirus WIV1, UniProt U5WI05)
SARS-CoV-2 wild-type RBD = SARS-CoV-2 wild-type RBD (SARS-CoV-2, UniProt P0DTC2)
Bat-RaTG13 RBD = Bat-RaTG13 RBD (Bat coronavirus RaTG13, UniProt A0ABF7PLN6)
Bat-RsSHC014 RBD = Bat-RsSHC014 RBD (Bat SARS-like coronavirus RsSHC014, UniProt U5WLK5)
GX2013 RBD = GX2013 RBD (SARSr-CoV BtRs-BetaCoV/GX2013)
SARS-CoV-1 RBD = SARS-CoV-1 RBD (SARS-CoV-1, strain not named, UniProt P59594)

Row | Binder | binding result (HeB2013 RBD) | binding result (Bat-WIV1 RBD) | binding result (SARS-CoV-2 wild-type RBD) | binding result (Bat-RaTG13 RBD) | binding result (Bat-RsSHC014 RBD) | binding result (GX2013 RBD) | binding result (SARS-CoV-1 RBD)
1 | B1 | binds | binds | binds | binds | binds | binds | 
2 | B2 | binds | binds | binds | binds | binds | binds | 
3 | B3 |  |  | binds |  |  |  | 
4 | B4 | binds | no binding (tested: 200 nM RBD) | binds | binds | binds | binds | 
5 | B5 | binds | binds | binds | binds | binds | binds | 
6 | B6 |  |  | binds | binds | binds |  | 
7 | B7 | binds | binds | binds | binds | binds | binds | binds
8 | B8 |  |  | binds |  |  |  | 

From paper doi:10.64898/2025.12.19.695307 (bioRxiv, 2025)
